Laboratory results reported in the supplement of paper PMC7877785.
± gives the uncertainty stated by the source.

Assay: self-splicing fitness, log relative to wild type (ln ratio); higher = more splicing; Tetrahymena group I intron in knt gene, E. coli kanamycin selection, DiMSum; sequences stand for … in CUCUCU…GGAGGGAAAAGUUAUCAGGCAUGCACCUGGUAGCUAGUCUUUAAACCAAUAGAUUGCAUCGGUUUAAAAGGCAAGACCGUCAAAUUGCGGGAAAGGGGUCAACAGCCGUUCAGUACCAAGUCUCAGGGGAAACUUUGAGAUGGCCUUGCAAAGGGUAUGGUAAUAAGCUGACGGACAUGGUCCUAACCACGCAGCCAAGUCCUAAGUCAACAGAUCUUCUGUUGAUAUGGAUGCAGUUCACAGACUAAAUGUCGGUCGGGGAAGAUGUAUUCUUCUCAUAAGAUAUAGUCGGACCUCUCCUUAAUGGGAGCUAGCGGAUGAAGUGAUGCAACACUGGAGCCGCUGGGAACUAAUUUGUAUGCGAAAGUAUAUUGAUUAGUUUUGGAGUACUCGUGGUCG
Method in brief: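 A randomised library covering all eight P1ex-region intron nucleotides was built with the intron in the knt kanamycin-resistance gene on pET-22b(+) and held in E. coli BL21(DE3). Cells were grown overnight at 37°C or 30°C on LB agar, with or without 25 μg/mL kanamycin, plus 100 μg/mL carbenicillin, 50 μM IPTG and 0.2% rhamnose, and pooled colonies were amplicon-sequenced on an Illumina HiSeq 2500. DiMSum fitness is the error-weighted combination of wild-type-normalised replicate fold changes, kanamycin versus none.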

CGGCAGCAAUAUUACGCUUG
self-splicing fitness (ln) (30 °C): -2.4 ± 0.15 | self-splicing fitness (ln) (37 °C): -2.31 ± 0.23

CGGCAGCAAUAUUACGGCAA
self-splicing fitness (ln) (30 °C): -1.1 ± 0.083 | self-splicing fitness (ln) (37 °C): -1.27 ± 0.1

CGGCAGCAAUAUUACGGCCG
self-splicing fitness (ln) (30 °C): -3.13 ± 0.39 | self-splicing fitness (ln) (37 °C): -1.42 ± 0.39

CGGCAGCAAUAUUACGGUCA
self-splicing fitness (ln) (30 °C): -0.0453 ± 0.068 | self-splicing fitness (ln) (37 °C): -0.156 ± 0.083

CGGCAGCAAUAUUACGGUUA
self-splicing fitness (ln) (30 °C): -0.164 ± 0.067 | self-splicing fitness (ln) (37 °C): -0.476 ± 0.059

CGGCAGCAAUAUUACGUAAG
self-splicing fitness (ln) (30 °C): -0.428 ± 0.059 | self-splicing fitness (ln) (37 °C): 0.0199 ± 0.075

CGGCAGCAAUAUUACGUAGG
self-splicing fitness (ln) (30 °C): -0.38 ± 0.075 | self-splicing fitness (ln) (37 °C): 0.0683 ± 0.097

CGGCAGCAAUAUUACGUAUC
self-splicing fitness (ln) (30 °C): -3.9 ± 0.33 | self-splicing fitness (ln) (37 °C): -2.86 ± 0.27

CGGCAGCAAUAUUACGUCAC
self-splicing fitness (ln) (30 °C): -3.84 ± 0.25 | self-splicing fitness (ln) (37 °C): -2.81 ± 0.29

CGGCAGCAAUAUUACGUCCC
self-splicing fitness (ln) (30 °C): -0.557 ± 0.23 | self-splicing fitness (ln) (37 °C): 0.728 ± 0.37

CGGCAGCAAUAUUACGUUCU
self-splicing fitness (ln) (30 °C): -0.518 ± 0.08 | self-splicing fitness (ln) (37 °C): -0.416 ± 0.11

CGGGAGCAAUAUUACGAAAU
self-splicing fitness (ln) (37 °C): -1.65 ± 0.44

CGGGAGCAAUAUUACGACAG
self-splicing fitness (ln) (30 °C): -1.7 ± 0.22 | self-splicing fitness (ln) (37 °C): -0.944 ± 0.38

CGGGAGCAAUAUUACGACGC
self-splicing fitness (ln) (30 °C): -4.16 ± 0.46 | self-splicing fitness (ln) (37 °C): -3.31 ± 0.3

CGGGAGCAAUAUUACGCAAC
self-splicing fitness (ln) (30 °C): -2.66 ± 0.24

CGGGAGCAAUAUUACGCAAU
self-splicing fitness (ln) (30 °C): -3.15 ± 0.39

CGGGAGCAAUAUUACGCACC
self-splicing fitness (ln) (30 °C): -3.47 ± 0.39

CGGGAGCAAUAUUACGCAGG
self-splicing fitness (ln) (30 °C): -3.04 ± 0.36 | self-splicing fitness (ln) (37 °C): -0.973 ± 0.27

CGGGAGCAAUAUUACGCGCU
self-splicing fitness (ln) (30 °C): -3.25 ± 0.32

CGGGAGCAAUAUUACGGAGU
self-splicing fitness (ln) (30 °C): -3.92 ± 0.27 | self-splicing fitness (ln) (37 °C): -2.77 ± 0.2

CGGGAGCAAUAUUACGGAUU
self-splicing fitness (ln) (30 °C): -3.51 ± 0.33 | self-splicing fitness (ln) (37 °C): -1.27 ± 0.28

CGGGAGCAAUAUUACGGCAA
self-splicing fitness (ln) (30 °C): -3.64 ± 0.43

CGGGAGCAAUAUUACGGGGA
self-splicing fitness (ln) (30 °C): -2.04 ± 0.3 | self-splicing fitness (ln) (37 °C): -1.83 ± 0.23

CGGGAGCAAUAUUACGUAAC
self-splicing fitness (ln) (30 °C): -1.35 ± 0.27

CGGGAGCAAUAUUACGUAAG
self-splicing fitness (ln) (30 °C): -1.46 ± 0.17 | self-splicing fitness (ln) (37 °C): -0.321 ± 0.18

CGGGAGCAAUAUUACGUAGG
self-splicing fitness (ln) (30 °C): -1.91 ± 0.099 | self-splicing fitness (ln) (37 °C): -1.6 ± 0.17

CGGGAGCAAUAUUACGUCGU
self-splicing fitness (ln) (30 °C): -3.3 ± 0.26 | self-splicing fitness (ln) (37 °C): -2.35 ± 0.3

CGGGAGCAAUAUUACGUGAU
self-splicing fitness (ln) (37 °C): -0.773 ± 0.19

CGGGAGCAAUAUUACGUUGA
self-splicing fitness (ln) (30 °C): -3.82 ± 0.39 | self-splicing fitness (ln) (37 °C): -2 ± 0.23

CGGUAGCAAUAUUACGAAUU
self-splicing fitness (ln) (30 °C): -2.07 ± 0.24 | self-splicing fitness (ln) (37 °C): -2.34 ± 0.24

CGGUAGCAAUAUUACGACUC
self-splicing fitness (ln) (30 °C): -1.01 ± 0.32 | self-splicing fitness (ln) (37 °C): 1.23 ± 0.43

CGGUAGCAAUAUUACGAUCA
self-splicing fitness (ln) (30 °C): -0.493 ± 0.085 | self-splicing fitness (ln) (37 °C): 0.196 ± 0.12

CGGUAGCAAUAUUACGAUGC
self-splicing fitness (ln) (30 °C): -3.7 ± 0.2 | self-splicing fitness (ln) (37 °C): -0.598 ± 0.13

CGGUAGCAAUAUUACGAUUU
self-splicing fitness (ln) (30 °C): -2.17 ± 0.17 | self-splicing fitness (ln) (37 °C): -0.333 ± 0.15

CGGUAGCAAUAUUACGCAAU
self-splicing fitness (ln) (37 °C): -3.67 ± 0.46

CGGUAGCAAUAUUACGCAGC
self-splicing fitness (ln) (30 °C): -2.14 ± 0.24 | self-splicing fitness (ln) (37 °C): -1.72 ± 0.31

CGGUAGCAAUAUUACGCCAC
self-splicing fitness (ln) (30 °C): -3.5 ± 0.39 | self-splicing fitness (ln) (37 °C): -2.03 ± 0.27

CGGUAGCAAUAUUACGCCGA
self-splicing fitness (ln) (30 °C): -0.997 ± 0.24 | self-splicing fitness (ln) (37 °C): -1.5 ± 0.25

CGGUAGCAAUAUUACGCGAA
self-splicing fitness (ln) (30 °C): -2.83 ± 0.25 | self-splicing fitness (ln) (37 °C): -1.28 ± 0.19

CGGUAGCAAUAUUACGCUAA
self-splicing fitness (ln) (30 °C): -2.88 ± 0.28 | self-splicing fitness (ln) (37 °C): -1.85 ± 0.18

CGGUAGCAAUAUUACGCUUU
self-splicing fitness (ln) (30 °C): -3.21 ± 0.27 | self-splicing fitness (ln) (37 °C): -0.482 ± 0.12

CGGUAGCAAUAUUACGGAGA
self-splicing fitness (ln) (30 °C): -3.87 ± 0.32 | self-splicing fitness (ln) (37 °C): -2.72 ± 0.21

CGGUAGCAAUAUUACGGAGG
self-splicing fitness (ln) (30 °C): -2.24 ± 0.087 | self-splicing fitness (ln) (37 °C): -0.94 ± 0.09

CGGUAGCAAUAUUACGGAUC
self-splicing fitness (ln) (30 °C): -4.27 ± 0.33 | self-splicing fitness (ln) (37 °C): -1.68 ± 0.23

CGGUAGCAAUAUUACGGCAC
self-splicing fitness (ln) (30 °C): -2.11 ± 0.26 | self-splicing fitness (ln) (37 °C): -1.99 ± 0.36
